Reference: patent US20250388669A1 (published 2025)

B1: Ly2281 (bispecific antibody)
heavy 1: QVTLKESGPALVKPTQTLTLTCTFSGFSLSTSGTCVSWIRQPPGKALEWLATICWEDSKGYNPSLKSRLTISKDTSKNQAVLTMTNMDPVDTATYYCARREDSGYFWFPYWGQGTLVTVSSASTKGPSVFPLAPSSKSTSGGTAALGCLVKDYFPEPVTVSWNSGALTSGVHTFPAVLQSSGLYSLSSVVTVPSSSLGTQTYICNVNHKPSNTKVDKKVEPKSCGGGGSGGGGSGGGGSGGGGSQVQLVQSGAEVKKPGASVKVSCKASGYTFAGFEMHWVRQAPGQGLEWMGAIDPKTGGTDYNQKFKDRVTMTRDTSISTAYMELSRLRSDDTAVYYCARDLGYFDVWGQGTLVTVSSGGGGSDKTHTCPPCPAPEAAGPSVFLFPPKPKDTLMISRTPEVTCVVVDVSHEDPEVKFNWYVDGVEVHNAKTKPREEQYNSTYRVVSVLTVLHQDWLNGKEYKCKVSNKALPAPIEKTISKAKGQPREPQVYTLPPSREEMTKNQVSLWCLVKGFYPSDIAVEWESNGQPENNYKTTPPVLDSDGSFFLYSKLTVDKSRWQQGNVFSCSVMHEALHNHYTQKSLSLSPG
heavy 2: QVTLKESGPALVKPTQTLTLTCTFSGFSLSTSGTCVSWIRQPPGKALEWLATICWEDSKGYNPSLKSRLTISKDTSKNQAVLTMTNMDPVDTATYYCARREDSGYFWFPYWGQGTLVTVSSASTKGPSVFPLAPSSKSTSGGTAALGCLVKDYFPEPVTVSWNSGALTSGVHTFPAVLQSSGLYSLSSVVTVPSSSLGTQTYICNVNHKPSNTKVDKKVEPKSCGGGGSGGGGSGGGGSGGGGSDIQMTQSPSSLSASVGDRVTITCRASQDIRSNLNWYQQKPGGAVKLLIYYTSRLHSGVPSRFSGSGSGTDYTLTISSLQPEDFATYFCQQSEKLPRTFGGGTKVEIRGGGGSDKTHTCPPCPAPEAAGPSVFLFPPKPKDTLMISRTPEVTCVVVDVSHEDPEVKFNWYVDGVEVHNAKTKPREEQYNSTYRVVSVLTVLHQDWLNGKEYKCKVSNKALPAPIEKTISKAKGQPREPQVYTLPPSREEMTKNQVSLSCAVKGFYPSDIAVEWESNGQPENNYKTTPPVLDSDGSFFLVSKLTVDKSRWQQGNVFSCSVMHEALHNRFTQKSLSLSPG
light: NIQMTQSPSSLSASVGDRVTITCKAGQNVNNYLAWYQQKPGKAPKVLIFNANSLQTGVPSRFSGSGSGTDFTLTISSLQPEDFATYYCQQYNSWPTFGGGTKVEIKRTVAAPSVFIFPPSDEQLKSGTASVVCLLNNFYPREAKVQWKVDNALQSGNSQESVTEQDSKDSTYSLSSTLTLSKADYEKHKVYACEVTHQGLSSPVTKSFNRGEC
notes: PD-1 Fabs (Ly516) x central CD137 Fv
B2: Ly2278 (bispecific antibody)
chain 1: QVQLQQSGAELVRPGSSVKISCKASGYAFSSYWMNWVKQRPGQGLEWIGQIWPGDGDTNYNGKFKGKATLTADESSSTAYMQLSSLASEDSAVYFCARRETTTVGRYYYAMDYWGQGTTVTVSSASTKGPSVFPLAPSSKSTSGGTAALGCLVKDYFPEPVTVSWNSGALTSGVHTFPAVLQSSGLYSLSSVVTVPSSSLGTQTYICNVNHKPSNTKVDKKVEPKSCGGGGSGGGGSGGGGSGGGGSEVQLVESGGGLVQPGGSLRLSCAASGFTFSTYAMNWVRQAPGKGLEWVGRIRSKYNNYATYYADSVKGRFTISRDDSKNSLYLQMNSLKTEDTAVYYCVRHGNFGNSYVSWFAYWGQGTLVTVSSGGGGSDKTHTCPPCPAPEAAGPSVFLFPPKPKDTLMISRTPEVTCVVVDVSHEDPEVKFNWYVDGVEVHNAKTKPREEQYNSTYRVVSVLTVLHQDWLNGKEYKCKVSNKALPAPIEKTISKAKGQPREPQVYTLPPSREEMTKNQVSLWCLVKGFYPSDIAVEWESNGQPENNYKTTPPVLDSDGSFFLYSKLTVDKSRWQQGNVFSCSVMHEALHNHYTQKSLSLSPG
chain 2: QVQLQQSGAELVRPGSSVKISCKASGYAFSSYWMNWVKQRPGQGLEWIGQIWPGDGDTNYNGKFKGKATLTADESSSTAYMQLSSLASEDSAVYFCARRETTTVGRYYYAMDYWGQGTTVTVSSASTKGPSVFPLAPSSKSTSGGTAALGCLVKDYFPEPVTVSWNSGALTSGVHTFPAVLQSSGLYSLSSVVTVPSSSLGTQTYICNVNHKPSNTKVDKKVEPKSCGGGGSGGGGSGGGGSGGGGSQAVVTQEPSLTVSPGGTVTLTCRSSTGAVTTSNYANWVQQKPGQAPRGLIGGTNKRAPWTPARFSGSLLGGKAALTITGAQAEDEADYYCALWYSNLWVFGGGTKLTVLGGGGSDKTHTCPPCPAPEAAGPSVFLFPPKPKDTLMISRTPEVTCVVVDVSHEDPEVKFNWYVDGVEVHNAKTKPREEQYNSTYRVVSVLTVLHQDWLNGKEYKCKVSNKALPAPIEKTISKAKGQPREPQVYTLPPSREEMTKNQVSLSCAVKGFYPSDIAVEWESNGQPENNYKTTPPVLDSDGSFFLVSKLTVDKSRWQQGNVFSCSVMHEALHNRFTQKSLSLSPG
light: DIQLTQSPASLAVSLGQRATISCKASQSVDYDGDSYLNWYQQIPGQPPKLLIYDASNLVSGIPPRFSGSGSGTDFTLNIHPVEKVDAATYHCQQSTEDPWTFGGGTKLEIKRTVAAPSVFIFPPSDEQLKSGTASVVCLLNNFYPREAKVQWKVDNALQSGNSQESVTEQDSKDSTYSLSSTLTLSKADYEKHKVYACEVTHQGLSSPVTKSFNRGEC
notes: CD19 Fabs, central CD3 Fv
B3: Ly305 (antibody, V domains shown)
VH: EVQLVESGGGLVQPGGSLRLSCAASGFTFSTYAMNWVRQAPGKGLEWVGRIRSKYNNYATYYADSVKGRFTISRDDSKNSLYLQMNSLKTEDTAVYYCVRHGNFGNSYVSWFAYWGQGTLVTVSS
VL: QAVVTQEPSLTVSPGGTVTLTCRSSTGAVTTSNYANWVQQKPGQAPRGLIGGTNKRAPWTPARFSGSLLGGKAALTITGAQAEDEADYYCALWYSNLWVFGGGTKLTVL
notes: Parent mAb; also called Anti-CD3 Ly305; parent anti-CD3 mAb
B4: Ly1965 (bispecific antibody)
chain 1: QVQLVQSGAEVKKPGASVKVSCKASGYTFTSYVMHWVRQKPGQGLEWIGYINPYNEGTESTDKFKGRATMTSDKSTSTVYMELSSLRSEDTAVYYCASIYYGYEGTYFGVWGQGTLVTVSSASTKGPSVFPLAPSSKSTSGGTAALGCLVKDYFPEPVTVSWNSGALTSGVHTFPAVLQSSGLYSLSSVVTVPSSSLGTQTYICNVNHKPSNTKVDKKVEPKSCGGGGSGGGGSGGGGSGGGGSEVQLVESGGGLVQPGGSLRLSCAASGFTFSTYAMNWVRQAPGKGLEWVGRIRSKYNNYATYYADSVKGRFTISRDDSKNSLYLQMNSLKTEDTAVYYCVRHGNFGNSYVSWFAYWGQGTLVTVSSGGGGSDKTHTCPPCPAPEAAGPSVFLFPPKPKDTLMISRTPEVTCVVVDVSHEDPEVKFNWYVDGVEVHNAKTKPREEQYNSTYRVVSVLTVLHQDWLNGKEYKCKVSNKALPAPIEKTISKAKGQPREPQVYTLPPSREEMTKNQVSLWCLVKGFYPSDIAVEWESNGQPENNYKTTPPVLDSDGSFFLYSKLTVDKSRWQQGNVFSCSVMHEALHNHYTQKSLSLSPG
chain 2: QVQLVQSGAEVKKPGASVKVSCKASGYTFTSYVMHWVRQKPGQGLEWIGYINPYNEGTESTDKFKGRATMTSDKSTSTVYMELSSLRSEDTAVYYCASIYYGYEGTYFGVWGQGTLVTVSSASTKGPSVFPLAPSSKSTSGGTAALGCLVKDYFPEPVTVSWNSGALTSGVHTFPAVLQSSGLYSLSSVVTVPSSSLGTQTYICNVNHKPSNTKVDKKVEPKSCGGGGSGGGGSGGGGSGGGGSQAVVTQEPSLTVSPGGTVTLTCRSSTGAVTTSNYANWVQQKPGQAPRGLIGGTNKRAPWTPARFSGSLLGGKAALTITGAQAEDEADYYCALWYSNLWVFGGGTKLTVLGGGGSDKTHTCPPCPAPEAAGPSVFLFPPKPKDTLMISRTPEVTCVVVDVSHEDPEVKFNWYVDGVEVHNAKTKPREEQYNSTYRVVSVLTVLHQDWLNGKEYKCKVSNKALPAPIEKTISKAKGQPREPQVYTLPPSREEMTKNQVSLSCAVKGFYPSDIAVEWESNGQPENNYKTTPPVLDSDGSFFLVSKLTVDKSRWQQGNVFSCSVMHEALHNRFTQKSLSLSPG
light: EIVLTQSPATLSLSPGERATLSCRASSSVSYMHWYQQKPGQAPRPWIYATSNLASGIPARFSGSRSGTDYTLTISSLEPEDFAVYYCQQWSSNTLTFGGGTKVEIKRTVAAPSVFIFPPSDEQLKSGTASVVCLLNNFYPREAKVQWKVDNALQSGNSQESVTEQDSKDSTYSLSSTLTLSKADYEKHKVYACEVTHQGLSSPVTKSFNRGEC
notes: B7H3 Fabs, central CD3 Fv
B5: Ly2434 (bispecific antibody, human IgG1, kappa)
chain 1: QVQLVQSGAEVKKPGASVKVSCKASGYTFTSYVMHWVRQKPGQGLEWIGYINPYNEGTESTDKFKGRATMTSDKSTSTVYMELSSLRSEDTAVYYCASIYYGYEGTYFGVWGQGTLVTVSSASTKGPSVFPLAPSSKSTSGGTAALGCLVKDYFPEPVTVSWNSGALTSGVHTFPAVLQSSGLYSLSSVVTVPSSSLGTQTYICNVNHKPSNTKVDKKVEPKSCDKTHTCPPCPAPEAAGPSVFLFPPKPKDTLMISRTPEVTCVVVDVSHEDPEVKFNWYVDGVEVHNAKTKPREEQYNSTYRVVSVLTVLHQDWLNGKEYKCKVSNKALPAPIEKTISKAKGQPREPQVYTLPPSREEMTKNQVSLWCLVKGFYPSDIAVEWESNGQPENNYKTTPPVLDSDGSFFLYSKLTVDKSRWQQGNVFSCSVMHEALHNHYTQKSLSLSPGGGGGSGGGGSGGGGSGGGGSEVQLVESGGGLVQPGGSLRLSCAASGFTFTNYGLHWVRQAPGKGLEWVSSISPSGGVTYYRDSVKGRFTISRDNSKNTLYLQMNSLRAEDTAVYYCAKPFLGWGGANWIAHWGQGTLVTVSS
chain 2: QVQLVQSGAEVKKPGASVKVSCKASGYTFTSYVMHWVRQKPGQGLEWIGYINPYNEGTESTDKFKGRATMTSDKSTSTVYMELSSLRSEDTAVYYCASIYYGYEGTYFGVWGQGTLVTVSSASTKGPSVFPLAPSSKSTSGGTAALGCLVKDYFPEPVTVSWNSGALTSGVHTFPAVLQSSGLYSLSSVVTVPSSSLGTQTYICNVNHKPSNTKVDKKVEPKSCDKTHTCPPCPAPEAAGPSVFLFPPKPKDTLMISRTPEVTCVVVDVSHEDPEVKFNWYVDGVEVHNAKTKPREEQYNSTYRVVSVLTVLHQDWLNGKEYKCKVSNKALPAPIEKTISKAKGQPREPQVYTLPPSREEMTKNQVSLSCAVKGFYPSDIAVEWESNGQPENNYKTTPPVLDSDGSFFLVSKLTVDKSRWQQGNVFSCSVMHEALHNRFTQKSLSLSPGGGGGSGGGGSGGGGSGGGGSDIQMTQSPSSLSASVGDRVTITCLASEDISNDLAWYQQKPGKAPKLLIYFVDRLLDGVPSRFSGSGSGTDFTLTISSLQPEDFATYYCQQSYKYPPTFGQGTKLEIK
light: B4 light
notes: B7H3/CD40: two B7H3 Fabs, terminal CD40 Fv (TM559)

How the values were obtained:
[1] = target: PD-1 (binding assay) (UniProt Q15116 25-167, limits assumed); assay: FCM or ELISA, graded
Sequence of PD-1 (binding assay) (Q15116 25-167 limits assumed): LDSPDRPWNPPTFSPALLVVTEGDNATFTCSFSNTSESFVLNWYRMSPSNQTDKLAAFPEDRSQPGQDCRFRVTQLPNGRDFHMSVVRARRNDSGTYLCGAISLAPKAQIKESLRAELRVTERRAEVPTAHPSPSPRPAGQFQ

[2] = target: CD3 (human); assay: CD3 binding, as described in Example 2 (ELISA or FCM)
Sequence of CD3 (human) (chain, as listed by the source): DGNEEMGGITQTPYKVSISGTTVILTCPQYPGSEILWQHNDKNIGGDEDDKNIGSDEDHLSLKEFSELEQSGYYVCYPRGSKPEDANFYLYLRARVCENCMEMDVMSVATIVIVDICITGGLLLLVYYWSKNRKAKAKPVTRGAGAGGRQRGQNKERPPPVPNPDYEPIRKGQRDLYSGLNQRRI

[3] = target: T1, B7H3 (human, UniProt Q5ZPR3 29-466, limits assumed); assay: FCM or ELISA
T1 construct: Tumor associated antigen; also called huB7H3
T1 sequence (looked up): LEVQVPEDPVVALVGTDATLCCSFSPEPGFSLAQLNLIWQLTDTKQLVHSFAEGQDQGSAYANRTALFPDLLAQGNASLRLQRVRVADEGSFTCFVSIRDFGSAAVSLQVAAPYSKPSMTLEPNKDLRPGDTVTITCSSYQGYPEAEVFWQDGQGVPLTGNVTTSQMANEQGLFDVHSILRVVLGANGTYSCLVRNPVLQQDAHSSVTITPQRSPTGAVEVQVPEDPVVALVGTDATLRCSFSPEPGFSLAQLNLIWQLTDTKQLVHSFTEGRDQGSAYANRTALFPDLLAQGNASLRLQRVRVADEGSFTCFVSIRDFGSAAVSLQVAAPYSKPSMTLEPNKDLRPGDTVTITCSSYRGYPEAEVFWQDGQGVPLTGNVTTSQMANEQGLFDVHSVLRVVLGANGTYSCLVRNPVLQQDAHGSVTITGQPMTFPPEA

Binder	EC50 [2] [µg/mL]	other results
B1		binding result [1]: binds
B2	1.46	
B3	0.03	
B4	0.419	
B5		binding result [3]: binds
